This is an account of results in article PMC2639713.

The series addresses T1, mini-vRNAP K176C/S885C (Bacteriophage N4 (coliphage), UniProt Q859P9 998-2103, K1173C;S1882C).
T1 sequence: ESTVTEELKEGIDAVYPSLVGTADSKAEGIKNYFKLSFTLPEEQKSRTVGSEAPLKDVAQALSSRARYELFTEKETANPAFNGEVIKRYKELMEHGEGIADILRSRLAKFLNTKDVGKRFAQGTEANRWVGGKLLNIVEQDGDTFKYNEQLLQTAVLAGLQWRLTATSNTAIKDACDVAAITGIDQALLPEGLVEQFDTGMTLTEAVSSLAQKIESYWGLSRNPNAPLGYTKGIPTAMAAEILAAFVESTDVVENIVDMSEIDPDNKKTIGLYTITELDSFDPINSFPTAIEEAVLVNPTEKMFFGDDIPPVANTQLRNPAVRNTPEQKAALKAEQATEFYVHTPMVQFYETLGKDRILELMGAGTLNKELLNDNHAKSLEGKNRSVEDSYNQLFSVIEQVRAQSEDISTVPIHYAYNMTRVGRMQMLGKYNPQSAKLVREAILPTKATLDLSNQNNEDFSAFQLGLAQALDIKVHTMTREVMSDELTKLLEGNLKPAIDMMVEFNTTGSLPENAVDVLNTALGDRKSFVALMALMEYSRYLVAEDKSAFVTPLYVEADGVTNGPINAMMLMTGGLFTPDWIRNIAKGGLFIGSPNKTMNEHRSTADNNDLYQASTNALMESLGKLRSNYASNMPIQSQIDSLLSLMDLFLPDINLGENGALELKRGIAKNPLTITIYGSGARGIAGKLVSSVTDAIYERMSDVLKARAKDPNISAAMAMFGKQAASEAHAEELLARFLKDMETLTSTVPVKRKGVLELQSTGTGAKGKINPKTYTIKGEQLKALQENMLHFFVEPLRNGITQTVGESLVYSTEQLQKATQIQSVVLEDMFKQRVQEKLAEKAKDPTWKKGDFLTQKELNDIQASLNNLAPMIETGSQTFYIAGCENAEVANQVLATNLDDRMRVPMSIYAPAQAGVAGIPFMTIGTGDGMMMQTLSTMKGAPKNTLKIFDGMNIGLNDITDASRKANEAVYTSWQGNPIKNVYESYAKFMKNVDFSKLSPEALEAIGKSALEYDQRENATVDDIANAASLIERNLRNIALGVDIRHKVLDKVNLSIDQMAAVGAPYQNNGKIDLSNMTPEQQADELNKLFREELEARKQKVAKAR
Nature of the series: UV cross-linking.

B1: 13mer -11 5-IdU promoter hairpin (-17 to -5) (structured_DNA)
DNA: GAAGCGTAGCTTC
modifications: 5-iodo-dU at position 7 (-11), written as T
B1: the binding result is listed as “binds”.
